Data on 32 molecules can be found in patent publication US20070020327A1.

The target of the first assay is HLA-A*1101 (human). Put plainly: competition with 125I-labelled standard peptide on purified HLA-A*1101, gel filtration.
Conditions: not given
(In general: In gel filtration, larger molecules generally elute earlier.)
Take LGIASGRAR (modifications not checked) [PSM peptide … (position 528, 9 amino acids)]: the binding affinity ratio (IC50 of standard peptide / IC50 of test peptide) is 0.0002.
With LLSLYGIHK (modifications not checked) [PAP peptide … (position 243, 9 amino acids)], the binding affinity ratio (IC50 of standard peptide / IC50 of test peptide) is 0.2.
Same read-out and setting: under LGEYIRKRYR (modifications not checked) [PAP peptide … (position 81, 10 amino acids)] stands 0.0002; under LLPPYASCH (modifications not checked) [PAP peptide … (position 306, 9 amino acids)], 0.0002; under LSLLSLYGIH (modifications not checked) [PAP peptide … (position 241, 10 amino acids)], 0.0002.
On the same count and under the same terms, under LVFRHGDR (modifications not checked) [PAP peptide LVFRHGDR (position 40, 8 amino acids)] stands 0.0002; under LTELYFEK (modifications not checked) [PAP peptide LTELYFEK (position 315, 8 amino acids)], 0.01; under LLSYPNKTH (modifications not checked) [PSM peptide … (position 116, 9 amino acids)], 0.0003.

The assay is the same for the next values; noted with them: remark: other sources report otherwise.
LGEYIRKRY (modifications not checked) [PAP peptide … (position 81, 9 amino acids)]: the binding affinity ratio (IC50 of standard peptide / IC50 of test peptide) came to 0.0002.

In a further assay the target is HLA-A*6802 (human). Put plainly: competition with 125I-labelled standard peptide for purified HLA, gel filtration.
Conditions: not given
Turning to PAVYTKVV (modifications not checked) [Kallikrein 240 PAVYTKVV], the binding affinity ratio (IC50 of standard peptide / IC50 of test peptide) is -0.0001.
Same read-out and setting: to PAELTDAV (modifications not checked) [PSA 125 PAELTDAV] belongs -0.0001.
With PAKITDVV (modifications not checked) [Kallikrein 129 PAKITDVV], the binding affinity ratio (IC50 of standard peptide / IC50 of test peptide) was -0.0001.
On to PLYNMSLL (modifications not checked) [Kallikrein 99 PLYNMSLL], for which the binding affinity ratio (IC50 of standard peptide / IC50 of test peptide) was -0.0001.
On the same count and under the same terms, to PAELTDAVKVM (modifications not checked) [PSA 125 …] belongs -0.0001; to PLIQSRIV (modifications not checked) [Kallikrein 19 PLIQSRIV], -0.0001.

Still in this assay, the particulars now being: scale: ratio.
Regarding SLLKHQSL (modifications not checked) [Kallikrein (hK2) peptide SLLKHQSL (position 104, 8 amino acids)], the binding affinity ratio was -0.0001.
Still for that read-out and setting: under SVGCTGAV (modifications not checked) [Kallikrein (hK2) peptide SVGCTGAV (position 11, 8 amino acids)] stands -0.0001.
On to SLFHPEDT (modifications not checked) [PSA peptide SLFHPEDT (position 75, 8 amino acids)], for which the binding affinity ratio was -0.0001.

Another assay addresses HLA-A*0201 (human). The assay is described as above.
Conditions: not given
Consider PAVYTKVV (modifications not checked) [Kallikrein 240 PAVYTKVV], for which the binding affinity ratio (IC50 of standard peptide / IC50 of test peptide) stood at 0.0001.
Still for that read-out and setting: under PAELTDAV (modifications not checked) [PSA 125 PAELTDAV] stands -0.0001; under PAKITDVV (modifications not checked) [Kallikrein 129 PAKITDVV], 0.0001.
The same measure, in the same setting: to PLYNMSLL (modifications not checked) [Kallikrein 99 PLYNMSLL] belongs 0.0002.
Turning to PAELTDAVKVM (modifications not checked) [PSA 125 …], the binding affinity ratio (IC50 of standard peptide / IC50 of test peptide) came to 0.0003.
As for PLIQSRIV (modifications not checked) [Kallikrein 19 PLIQSRIV], the binding affinity ratio (IC50 of standard peptide / IC50 of test peptide) was 0.0001.

The assay is the same for the next values; noted with them: scale: ratio.
For SLLKHQSL (modifications not checked) [Kallikrein (hK2) peptide SLLKHQSL (position 104, 8 amino acids)], the binding affinity ratio amounted to 0.0002.
On the same count and under the same terms, under SLFHPEDT (modifications not checked) [PSA peptide SLFHPEDT (position 75, 8 amino acids)] stands 0.0003.

The target in a further assay is HLA-A*0203 (human). Described as above.
Conditions: not given
Consider PAVYTKVV (modifications not checked) [Kallikrein 240 PAVYTKVV], for which the binding affinity ratio (IC50 of standard peptide / IC50 of test peptide) is -0.0001.
On the same count and under the same terms, under PAELTDAV (modifications not checked) [PSA 125 PAELTDAV] stands -0.0001; under PAKITDVV (modifications not checked) [Kallikrein 129 PAKITDVV], -0.0001; under PLYNMSLL (modifications not checked) [Kallikrein 99 PLYNMSLL], 0.0002.
On the same count and under the same terms, under PAELTDAVKVM (modifications not checked) [PSA 125 …] stands 0.0008; under PLIQSRIV (modifications not checked) [Kallikrein 19 PLIQSRIV], -0.0001.

Still in this assay, the particulars now being: scale: ratio.
With SLLKHQSL (modifications not checked) [Kallikrein (hK2) peptide SLLKHQSL (position 104, 8 amino acids)], the binding affinity ratio came to 0.0002.
Same read-out and setting: under SVGCTGAV (modifications not checked) [Kallikrein (hK2) peptide SVGCTGAV (position 11, 8 amino acids)] stands 0.0022.

In the next assay the target is HLA-A*0202 (human). The description is as above.
Conditions: not given
Consider PAVYTKVV (modifications not checked) [Kallikrein 240 PAVYTKVV], for which the binding affinity ratio (IC50 of standard peptide / IC50 of test peptide) is -0.0001.
With PAELTDAV (modifications not checked) [PSA 125 PAELTDAV], the binding affinity ratio (IC50 of standard peptide / IC50 of test peptide) was -0.0001.
On to PAKITDVV (modifications not checked) [Kallikrein 129 PAKITDVV], for which the binding affinity ratio (IC50 of standard peptide / IC50 of test peptide) is 0.0003.
Consider PLYNMSLL (modifications not checked) [Kallikrein 99 PLYNMSLL], for which the binding affinity ratio (IC50 of standard peptide / IC50 of test peptide) is 0.0008.
With PAELTDAVKVM (modifications not checked) [PSA 125 …], the binding affinity ratio (IC50 of standard peptide / IC50 of test peptide) was 0.0028.
As to PLIQSRIV (modifications not checked) [Kallikrein 19 PLIQSRIV], the binding affinity ratio (IC50 of standard peptide / IC50 of test peptide) came out at 0.0002.

The assay is the same for the next values; noted with them: scale: ratio.
As for SVGCTGAV (modifications not checked) [Kallikrein (hK2) peptide SVGCTGAV (position 11, 8 amino acids)], the binding affinity ratio was 0.0006.

The next assay deals with HLA-A*0206 (human). Described as above.
Conditions: not given
As to PAVYTKVV (modifications not checked) [Kallikrein 240 PAVYTKVV], the binding affinity ratio (IC50 of standard peptide / IC50 of test peptide) is -0.0001.
On the same count and under the same terms, to PAELTDAV (modifications not checked) [PSA 125 PAELTDAV] belongs -0.0001.
In the case of PAKITDVV (modifications not checked) [Kallikrein 129 PAKITDVV], the binding affinity ratio (IC50 of standard peptide / IC50 of test peptide) was -0.0001.
For the molecule PLYNMSLL (modifications not checked) [Kallikrein 99 PLYNMSLL], the binding affinity ratio (IC50 of standard peptide / IC50 of test peptide) is -0.0001.
Still for that read-out and setting: to PAELTDAVKVM (modifications not checked) [PSA 125 …] belongs -0.0001; to PLIQSRIV (modifications not checked) [Kallikrein 19 PLIQSRIV], -0.0001.

The assay is the same for the next values; noted with them: scale: ratio.
For SLLKHQSL (modifications not checked) [Kallikrein (hK2) peptide SLLKHQSL (position 104, 8 amino acids)], the binding affinity ratio was -0.0001.
The same measure, in the same setting: to SVGCTGAV (modifications not checked) [Kallikrein (hK2) peptide SVGCTGAV (position 11, 8 amino acids)] belongs 0.0003; to SLFHPEDT (modifications not checked) [PSA peptide SLFHPEDT (position 75, 8 amino acids)], -0.0001.

The target in another assay is HLA-A*0203 (human). Put plainly: inhibition of 125I-labelled probe peptide binding to purified HLA, gel filtration. Conditions: remark: other sources report otherwise.
By IC50 is commonly meant the concentration that gives 50% inhibition. With HLLSNDMCARA (modifications not checked) [Peptide 1419.15 (HuK2.177) …], the IC50 was 250 nM.
FLRPRSLQCV (modifications not checked) [Peptide 1419.07 (HuK2.165) …] returned an IC50 of 4.2 nM.

In a further assay the target is HLA-B*0702 (human). Put plainly: competition with 125I-labelled standard peptide on purified HLA-B*0702, gel filtration; standard 1075.23 [..], […].
Conditions: not given
Take PPPPGYENV (modifications not checked) [… (PSM, position 146, 9 amino acids)]: the binding affinity ratio (IC50 of standard peptide / IC50 of test peptide) came out at 0.0001.
For the molecule PPGYENVSDI (modifications not checked) [… (PSM, position 148, 10 amino acids)], the binding affinity ratio (IC50 of standard peptide / IC50 of test peptide) turned out to be 0.0001.
Same read-out and setting: to SPEFSGMPRI (modifications not checked) [… (PSM, position 503, 10 amino acids)] belongs 0.002.

Another assay addresses HLA-A*0301 (human). The experiment in a line: competition with 125I-labelled standard peptide (941.12 [..]) for purified HLA-A*0301, gel filtration.
Conditions: not given
For the molecule TGQVFQVSH (modifications not checked) [… (PSA, position 82, 9 amino acids)], the binding affinity ratio (IC50 of the standard peptide / IC50 of the test peptide) was 0.0002.
For YDAQKLLEK (modifications not checked) [PSM.300 …], the binding affinity ratio (IC50 of standard peptide / IC50 of test peptide) turned out to be 0.0006.
For the molecule TLVFRHGDR (modifications not checked) [… (PAP, position 39, 9 amino acids)], the binding affinity ratio (IC50 of the standard peptide / IC50 of the test peptide) is 0.0006.
On the same count and under the same terms, to TLRGAVEPDR (modifications not checked) [… (PSM, position 361, 10 amino acids)] belongs 0.0003.
In the case of YGIHKQKEK (modifications not checked) [PAP.247 …], the binding affinity ratio (IC50 of standard peptide / IC50 of test peptide) came to 0.0006.
For the molecule YDVLLSYPNK (modifications not checked) [PSM.113 …], the binding affinity ratio (IC50 of standard peptide / IC50 of test peptide) was found to be 0.0005.
On the same count and under the same terms, to YGKVFRGNK (modifications not checked) [PSM.205 …] belongs 0.0006.

The assay is the same for the next values; noted with them: remark: other sources report otherwise.
Consider TAAHCIRNK (modifications not checked) [… (PSA, position 58, 9 amino acids)], for which the binding affinity ratio (IC50 of the standard peptide / IC50 of the test peptide) was determined as 0.0094.
Turning to YASCHLTELY (modifications not checked) [PAP.310 …], the binding affinity ratio (IC50 of standard peptide / IC50 of test peptide) is 0.0003.
